The results in this text go back to the FLAb antibody collection (doi:10.7554/elife.23156).

B1: scFv; the commonest letter at each place (parent)
chain 1: EVKLDETGGGLVQPGRPMKLSCVASGFTFSDYWMNWVRQSPEKGLEWVAQIRNKPYNYETYYSDSVKGRFTISRDDSKSSVYLQMNNLRVEDMGIYYCTGSYYGMDYWGQGTSVTVS
chain 2: DVVMTQTPLSLPVSLGDQASISCRSSQSLVHSNGNTYLRWYLQKPGQSPKVLIYKVSNRFSGVPDRFSGSGSGTDFTLKISRVEAEDLGVYFCSQSTHVPWTFGGGTKLEIK

In the series “fluorescein” the parent is B1. The series is described as follows: Kd (Tite-Seq). The note with it: with fluorescein; format: scFv 4-4-20, heavy + light.
In series [1] the parent is B1. Kind of series: yeast surface expression (ratio to wild type); higher = more expressed. The note with it: format: scFv 4-4-20, heavy + light.

For orientation: Kd means a measure of binding affinity in units of concentration. Regarding chain 1 S101Y Y102N D106Y, the equilibrium dissociation constant (Kd) in the series with fluorescein is at least 10000 nM. Also, the yeast surface expression in series [1] amounted to 0.501.
Take chain 1 T28L M34D: the equilibrium dissociation constant (Kd) with fluorescein is at least 10000 nM. Also, the yeast surface expression in series [1] came out at 0.101.
For chain 1 T28Q Y32S, in that order: 89.6 nM and 0.926.
For chain 1 T28N W36K, in that order: at least 10000 nM and 0.56.
For chain 1 T28A D31C N35A, in that order: at least 10000 nM and 0.411.
As for chain 1 T28E Y32V, the Kd with fluorescein was at least 10000 nM. Besides, the yeast surface expression in series [1] came to 1.14.
For chain 1 T28E Y32R, in that order: 31.8 nM and 0.928.
For chain 1 T28L V37Q, in that order: 10.2 nM and 0.731.
For chain 1 T28H D31K, in that order: 6.06 nM and 0.589.
chain 1 T28L W36A: in the series with fluorescein, the dissociation constant (Kd) is at least 10000 nM. In series [1], the yeast surface expression was found to be 0.508.
In the case of chain 1 T28R W33L, the Kd with fluorescein was at least 10000 nM. Moreover, the yeast surface expression in series [1] came to 0.935.
For chain 1 T28R W33G, in that order: at least 10000 nM and 0.684.
For chain 1 T28D S30P, in that order: 1.5 nM and 1.24.
For chain 1 T28C D31F M34A the same measures were at least 10000 nM and 0.672.
Take chain 1 S101Y Y103G: the dissociation constant Kd in the series with fluorescein was at least 10000 nM. In series [1], the yeast surface expression was found to be 0.935.
For chain 1 T28K Y32V, in that order: at least 10000 nM and 0.858.
For chain 1 T28P D31S, in that order: 1.15 nM and 1.07.
For chain 1 S101W Y107W, in that order: at least 10000 nM and 0.386.
As to chain 1 S101W Y107K, the Kd in the series with fluorescein was at least 10000 nM. Also, the yeast surface expression in series [1] came to 0.427.
In the case of chain 1 S101W Y107T, the Kd in the series with fluorescein was at least 10000 nM. Besides, the yeast surface expression in series [1] came to 0.42.
For chain 1 T28P M34S, in that order: 15.4 nM and 0.95.
For chain 1 T28F M34A the same measures were 18.9 nM and 0.566.
For chain 1 T28I S30M the same measures were 1.04 nM and 0.769.
For chain 1 T28D F29T W36L, the Kd in the series with fluorescein is at least 10000 nM. Besides, the yeast surface expression in series [1] turned out to be 0.514.
For the variant chain 1 T28M D31I W33Y, in the series with fluorescein, the dissociation constant Kd was at least 10000 nM. Also, in series [1], the yeast surface expression was 0.462.
For chain 1 T28P V37P the same measures were at least 10000 nM and 1.08.
For chain 1 T28P V37S the same measures were 0.939 nM and 0.884.
For chain 1 T28N M34E V37L the same measures were at least 10000 nM and 0.571.
Turning to chain 1 T28K F29C, in the series with fluorescein, the Kd was determined as 37.2 nM. The yeast surface expression in series [1] turned out to be 0.906.
For chain 1 T28K F29Y, in that order: 0.504 nM and 0.984.
For chain 1 T28H V37L, in that order: 3430 nM and 0.691.
Regarding chain 1 T28G V37P, in the series with fluorescein, the Kd stood at 5.19 nM. For the same variant, in series [1], the yeast surface expression turned out to be 0.581.
For chain 1 S101V Y107H the same measures were at least 10000 nM and 0.556.
For chain 1 T28A D31L, in that order: 6.55 nM and 0.713.
For chain 1 T28A D31M the same measures were 2.39 nM and 0.955.
As for chain 1 T28A D31W, the dissociation constant Kd with fluorescein was 6.38 nM. Besides, the yeast surface expression in series [1] came to 0.862.
For chain 1 T28E S30V, in that order: 1.5 nM and 0.928.
For chain 1 T28Q M34P, in that order: at least 10000 nM and 0.676.
For chain 1 T28P Y32D W36I the same measures were at least 10000 nM and 0.789.
chain 1 T28K W36R: the dissociation constant (Kd) in the series with fluorescein is 50.7 nM. The yeast surface expression in series [1] came out at 0.393.
For chain 1 T28E S30W Y32D the same measures were at least 10000 nM and 0.574.
For chain 1 T28K D31I, in that order: at least 10000 nM and 0.645.
For chain 1 T28I N35R the same measures were at least 10000 nM and 0.849.
As for chain 1 T28Q W33V, the dissociation constant Kd with fluorescein is at least 10000 nM. The yeast surface expression in series [1] is 1.34.
For chain 1 T28Q F29Q V37S, in that order: 62.4 nM and 0.421.
For chain 1 T28C V37N the same measures were at least 10000 nM and 0.357.
For chain 1 S101W, in that order: at least 10000 nM and 0.618.
As to chain 1 S101Y, in the series with fluorescein, the equilibrium dissociation constant (Kd) was at least 10000 nM. For the same variant, in series [1], the yeast surface expression turned out to be 0.659.
For chain 1 S101W G109T the same measures were at least 10000 nM and 0.212.
For chain 1 S101W G109V the same measures were at least 10000 nM and 0.224.
For chain 1 T28C F29P, in that order: at least 10000 nM and 0.637.
Regarding chain 1 T28R D31K, in the series with fluorescein, the Kd turned out to be 3.25 nM. Also, the yeast surface expression in series [1] was found to be 0.833.
In the case of chain 1 S101W M105Q, the Kd in the series with fluorescein was at least 10000 nM. Moreover, in series [1], the yeast surface expression came to 0.517.
For chain 1 S101W M105I, in that order: at least 10000 nM and 0.442.
For chain 1 S101Y G104H, in that order: at least 10000 nM and 0.343.
As for chain 1 S101Y G104T, in the series with fluorescein, the Kd is at least 10000 nM. Moreover, in series [1], the yeast surface expression turned out to be 0.261.
For chain 1 S101Y G104C, in that order: at least 10000 nM and 0.249.
For chain 1 T28R Y32H the same measures were 25.9 nM and 1.
